Patent publication US20100092489A1 (Genmab, published 2010)

B1: antibody -003 (antibody, human IgG1, V domains shown)
VH: not shown
VL: DIQMTQSPSSLSASVGDRVTITCRASQGISSWLAWYQQKPEKAPKSLIYAASSLQSGVPSRFSGSGSGTDFTLTISSLQPEDFATYYCQQYNSYPRTFGQGTKVEIK
notes: Human monoclonal IgG1 antibody; Recombinant form made with human IgG1 heavy chain constant region (pConG1f0.4) and kappa light chain constant region (pConKappa0.4); FITC-labelled in some assays; also called HuMab -003; -003-2F5
B2: antibody -024 (antibody, human IgG1, V domains shown)
VH: EVQLVQSGAEVKKPGESLKISCKGSGYSFSNYWIGWVRQMPGKGLEWMGIIYPHDSDARYSPSFQGQVTFSADKSISTAYLQWSSLKASDTAMYYCARHVGWGSRYWYFDLWGRGTLVTVSS
VL: EIVLTQSPATLSLSPGERATLSCRASQSVSSYLAWYQQKPGQAPGLLIYDASNRASGIPARFSGSGSGTDFTLTISSLEPEDFAVYYCQQRSNWPLTFGGGTKVEIK
notes: Human monoclonal IgG1 antibody; Recombinant form made with human IgG1 heavy chain constant region (pConG1f0.4) and kappa light chain constant region (pConKappa0.4)

Assays:
[1] = target: T1, HA-CD38 (HA-tagged extracellular domain of human CD38, wild type) (human, UniProt P28907 43-300); assay: SPR, Biacore 3000, 25° C., antibody immobilized on CM-5 chip, HA-tagged CD38 flowed over; mean of 3 experiments ± SD
T1 construct: The signal peptide SPHMM of the construct is not part of the secreted protein; also called HA-tagged CD38; wt human CD38; not shown: N-terminal HA-tag introduced by PCR primer cd38forha

[2] = target: T2, human CD38 expressed on cells (CHO-CD38, Daudi-luc, fresh multiple myeloma tumor cells) (human, UniProt P28907 1-300); assay: cell-based or functional assay
[3] = target: T2, human CD38 expressed on cells …; assay: flow cytometry on fresh MM tumor cells, FITC-labeled antibody
[4] = target: T2, human CD38 expressed on cells …; assay: flow cytometry on CHO-CD38 cells, rabbit anti-human IgG-FITC
Experimental: (§1) After harvesting and counting, Daudi-luc cells, CHO cells transfected with CD38 and control CHO cells were resuspended in PBS (1×10⁶ cells/ml). Then, cells were put in 96-well V-bottom plates (100 μl/well) and washed twice in PBS-BSA (PBS supplemented with 0.1% BSA and 0.02% Na-azide). Thereafter, 50 μl antibody solution in PBS-BSA was added to the cells (4° C., 30 min). After washing three times in PBS-BSA, 50 μl (1:400 dilution) of rabbit anti-human IgG-FITC in PBS-BSA was added (4° C. in the dark, 30 min). Cells were washed three times and specific binding of CD38-antibodies to CHO-CD38 and Daudi-luc cells was detected by flow cytometry.

[5] = target: T2, human CD38 expressed on cells …; assay: flow cytometry on Daudi-luc cells, rabbit anti-human IgG-FITC
Experimental: as §1

[6] = target: T2, human CD38 expressed on cells …; assay: cell-based or functional assay; remark: listed apart in the source
[7] = target: T2, human CD38 expressed on cells …; assay: cell-based or functional assay; remark: listed apart in the source
[8] = target: T2, human CD38 expressed on cells …; assay: cell-based or functional assay; remark: listed apart in the source

| Binder | Ka [1] [M⁻¹] | Kd [1] [nM] | EC50 CD38-CHO, CDC [2] [µg/mL] | EC50 Daudi-luc, CDC [2] [µg/mL] | EC50 [3] [µg/mL] | EC50 [4] [µg/mL] | EC50 [5] [µg/mL] | EC50 Daudi-luc, ADCC (51Cr release) [6] [µg/mL] | EC50 MM cells, ADCC (51Cr release) [6] [µg/mL] | Log EC50, ADCC of Daudi target cells (n=5) [7] | EC50, CDC of CHO-CD38 cells (n = 2) [8] [µg/mL] |
| --- | --- | --- | --- | --- | --- | --- | --- | --- | --- | --- | --- |
| B1 | 1.14e+09 | 0.885 | 3.14 | > 90 | 0.56 | 0.54 | 0.26 | 0.009 | 0.027 | 1.17 | 4.5 |
| B2 |  |  | 0.24 | > 90 | 0.02 | 0.08 | 0.05 | 0.0097 | 0.056 |  |  |
